Measured values as given in IntAct's records for PubMed 30262834.

B1: Leucine-rich repeat transmembrane neuronal protein 2 (Homo sapiens), O43300 (parent)
chain: MGLHFKWPLGAPMLAAIYAMSMVLKMLPALGMACPPKCRCEKLLFYCDSQGFHSVPNATDKGSLGLSLRHNHITELERDQFASFSQLTWLHLDHNQISTVKEDAFQGLYKLKELILSSNKIFYLPNTTFTQLINLQNLDLSFNQLSSLHPELFYGLRKLQTLHLRSNSLRTIPVRLFWDCRSLEFLDLSTNRLRSLARNGFAGLIKLRELHLEHNQLTKINFAHFLRLSSLHTLFLQWNKISNLTCGMEWTWGTLEKLDLTGNEIKAIDLTVFETMPNLKILLMDNNKLNSLDSKILNSLRSLTTVGLSGNLWECSARICALASWLGSFQGRWEHSILCHSPDHTQGEDILDAVHGFQLCWNLSTTVTVMATTYRDPTTEYTKRISSSSYHVGDKEIPTTAGIAVTTEEHFPEPDNAIFTQRVITGTMALLFSFFFIIFIVFISRKCCPPTLRRIRQCSMVQNHRQLRSQTRLHMSNMSDQGPYNEYEPTHEGPFIIINGYGQCKCQQLPYKECEV

Variants of: B1
Details: with NRXN1, P58400-1
NRXN1, P58400-1, sequence (P58400 other isoform, or with tags, fused parts or gaps): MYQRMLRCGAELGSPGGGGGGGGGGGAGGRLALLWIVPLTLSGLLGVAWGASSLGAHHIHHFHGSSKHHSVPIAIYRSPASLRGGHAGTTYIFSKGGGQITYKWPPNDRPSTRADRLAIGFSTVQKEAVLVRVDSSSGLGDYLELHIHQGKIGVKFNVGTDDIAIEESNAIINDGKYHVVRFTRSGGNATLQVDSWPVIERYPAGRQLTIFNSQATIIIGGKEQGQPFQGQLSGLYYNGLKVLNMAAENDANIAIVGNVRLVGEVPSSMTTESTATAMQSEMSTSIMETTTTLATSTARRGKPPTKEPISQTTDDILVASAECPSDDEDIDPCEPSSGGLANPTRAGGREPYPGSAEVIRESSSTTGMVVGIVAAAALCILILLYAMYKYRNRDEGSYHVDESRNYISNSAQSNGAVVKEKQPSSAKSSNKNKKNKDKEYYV

Variant | effect of a mutation on the interaction
H355A | with no effect
E348Q | disrupting interaction strength
D352A | decreasing interaction strength

Other lines, results leading:

effect of a mutation on the interaction | Variant
disrupting interaction strength | R208A
decreasing interaction strength | F357A
